The target in assay [1] is His8-RSL-Avitag (RSL with poly-histidine on the N-terminus and biotin via the Avitag on the C-terminus) (Ralstonia solanum). Briefly: SEC. (SEC sorts molecules by how far they enter the pores of the column.)
Assay [2] has as its target Avitag-RSL-His8 (RSL with biotin via the Avitag on the N-terminus and His8 on the C-terminus) (Ralstonia solanum). The assay is described as follows: SEC.

As a reminder, the stoichiometry N is the number of molecules, sites or subunits per partner or assembly.

In turn, “His8-RSL-Avitag (RSL with poly-histidine on the N-terminus and biotin via the Avitag on the C-terminus) (natural protein)” gave a stoichiometry N in assay [1] of 3.

On to “Avitag-RSL-His8 (RSL with biotin via the Avitag on the N-terminus and His8 on the C-terminus) (natural protein)”, for which the stoichiometry N in assay [2] came to 2.

(Values after paper PMC4511852.)
